Laboratory results published in patent US20060057146A1.

Key:
[1] = molecular target: recombinant ED-B domain of fibronectin (UniProt P02751); assay: 125I-labelled antibody on ED-B Sepharose column, bound against unbound radioactivity, before injection
[2] = molecular target: recombinant ED-B domain of fibronectin (UniProt P02751); assay: 125I-labelled antibody in mouse plasma 3 h after i.v. injection, ED-B Sepharose column
[3] = molecular target: recombinant ED-B domain of fibronectin (UniProt P02751); assay: 125I-labelled antibody in mouse plasma 6 h after i.v. injection, ED-B Sepharose column
[4] = molecular target: recombinant ED-B domain of fibronectin (UniProt P02751); assay: 125I-labelled antibody in mouse plasma 24 h after i.v. injection, ED-B Sepharose column
[5] = molecular target: recombinant ED-B domain of fibronectin (UniProt P02751); assay: 125I-labelled antibody in mouse plasma 48 h after i.v. injection, ED-B Sepharose column
[6] = molecular target: recombinant ED-B domain of fibronectin (UniProt P02751); assay: 125I-labelled antibody in mouse plasma 72 h after i.v. injection, ED-B Sepharose column
[7] = molecular target: recombinant ED-B domain of fibronectin (UniProt P02751); assay: 125I-labelled antibody in mouse plasma 144 h after i.v. injection, ED-B Sepharose column

Sequence of UniProt P02751 (P02751 1266-1356 limits assumed): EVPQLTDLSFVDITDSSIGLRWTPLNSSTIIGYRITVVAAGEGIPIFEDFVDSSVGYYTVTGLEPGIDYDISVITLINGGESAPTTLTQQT
Sequence of scFv(L19) (VH): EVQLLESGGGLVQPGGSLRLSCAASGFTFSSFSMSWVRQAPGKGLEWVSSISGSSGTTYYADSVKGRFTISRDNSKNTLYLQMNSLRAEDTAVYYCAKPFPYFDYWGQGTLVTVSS
Sequence of scFv(L19) (VL): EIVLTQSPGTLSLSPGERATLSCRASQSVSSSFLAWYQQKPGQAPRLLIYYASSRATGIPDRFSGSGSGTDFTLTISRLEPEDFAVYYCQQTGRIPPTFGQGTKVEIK

Row | immunoreactivity (percentage bound to ED-B Sepharose) [1] | Immunoreactivity (I), % of the value before i.v. injection [2] | Immunoreactivity (I), % of the value before i.v. injection [3] | Immunoreactivity (I), % of the value before i.v. injection [4] | Immunoreactivity (I), % of the value before i.v. injection [5] | Immunoreactivity (I), % of the value before i.v. injection [6] | Immunoreactivity (I), % of the value before i.v. injection [7] | Substance
1 | > 90% | – | – | – | – | – | – | L19 small immunoprotein (L19-SIP) (from UniProt P01854 319-426)
2 | > 90% | 36% | 32% | 27% | 14% | 9% | 4% | scFv(L19)
